Assay results taken from patent US20210315238A1.
Like-named read-outs stand apart in the source and are kept apart here.

Experiments:
33-mer peptide [1] = tested on: 33-mer peptide
26-mer peptide [2] = tested on: 26-mer peptide
[3] = target: wheat gliadin (Sigma, Cat. No. G3375) (wheat); assay: cell-based or functional assay
33-mer peptide [4] = target: T1, 33-mer peptide
T1 chain: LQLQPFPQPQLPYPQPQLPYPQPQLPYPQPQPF

26-mer peptide [5] = target: T2, 26-mer peptide
T2 chain: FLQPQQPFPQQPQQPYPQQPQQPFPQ

## Brewers Clarex
33-mer peptide [1]
  Residual 33-mer peptide (mg/mL) after 0.5 ppm protease, 10 min 40 C, HPLC: 0.58 mg/mL
  Residual 33-mer peptide (mg/mL) after 1 ppm protease, 10 min 40 C, HPLC: 0.39 mg/mL
  Residual 33-mer peptide (mg/mL) after 2 ppm protease, 10 min 40 C, HPLC: 0.18 mg/mL
  Residual immunogenicity of 33-mer peptide (%), competitive ELISA after protease treatment: 73.7%
26-mer peptide [2]
  Residual 26-mer peptide (mg/mL) after 0.5 ppm protease, 10 min 40 C, HPLC: 0.65 mg/mL
  Residual 26-mer peptide (mg/mL) after 1 ppm protease, 10 min 40 C, HPLC: 0.46 mg/mL
  Residual 26-mer peptide (mg/mL) after 2 ppm protease, 10 min 40 C, HPLC: 0.2 mg/mL
  Residual immunogenicity of 26-mer peptide (%), competitive ELISA after protease treatment: 99.6%

## Brewers Clarex (enzyme)
[3]
  Residual Immunogenicity (%) of wheat gliadin, competitive ELISA after protease treatment: 59.7%

B1: AflPro3 (protein)
chain: LSFLPGIKANNLQLASVLGIDGHTARFNPEKIAETAISRGSGSEVPARRISIPIDHEDPSMGTYQNRYWVSADFYKPGGPVFVLDAGEGNAYSVAQSYLGGSDNFFAEYLKEFNGLGLVWEHRYYGDSLPFPVNTSTPNEHFKYLTNSQALADLPYFAEKFTLNGTDLSPKSSPWIMLGGSYPGMRAAFTRNEYPDTIFASFAMSAPVEAWVNMTIYFEQVYRGMVANGLGGCAKDLKAINDYIDSQLDKKGQAADAIKTLFLGKEGIHNSNGDFTAALGSIYNLFQSYGVDGGEESLSQLCSYLDKEASPNGIARKIGVKELTEKFAAWPPLLYLINQWGSQVGNGDSNCKGQNNSTETVCELGGQFTDPDTISWTWQYCTEWGYLQADNVGPHSLLSKYQSLEYQQSLCYRQFPGAKESGLLPEHPEANETNAETGGWTIRPSNVFWSAGEFDPWRTLTPLSNETFAPKGVQISTNIPKCGVETPENVLFGYVIPRAEHCFDYDLSYKPADKSRKLFSLALKKWLPCWRSEHAPKGVQRKWM
33-mer peptide [4]
  Residual 33-mer peptide (mg/mL) after 0.5 ppm protease, 10 min 40 C, HPLC: 0.09 mg/mL
  Residual 33-mer peptide (mg/mL) after 1 ppm protease, 10 min 40 C, HPLC: 0.01 mg/mL
  Residual 33-mer peptide (mg/mL) after 2 ppm protease, 10 min 40 C, HPLC: 0.01 mg/mL
26-mer peptide [5]
  Residual 26-mer peptide (mg/mL) after 0.5 ppm protease, 10 min 40 C, HPLC: 0.38 mg/mL
  Residual 26-mer peptide (mg/mL) after 1 ppm protease, 10 min 40 C, HPLC: 0.17 mg/mL
  Residual 26-mer peptide (mg/mL) after 2 ppm protease, 10 min 40 C, HPLC: 0.05 mg/mL
